In US20200277374A1 (Alector, published 2020):

Key:
T103A = target: T1, T103A (human, UniProt Q9Y286); assay: flow cytometry on HEK-293T cells expressing the mutant; mean % of wild-type signal (range of duplicates)
T1 construct: clone of the siglec-7 mutation library; also called Siglec-7 T103A

K104A = target: T2, K104A (human, UniProt Q9Y286); assay: as above
T2 construct: clone of the siglec-7 mutation library; also called Siglec-7 K104A

F48A = target: T3, F48A (human, UniProt Q9Y286); assay: as above
T3 construct: clone of the siglec-7 mutation library; also called Siglec-7 F48A
T3 sequence (Q9Y286 19-467 F48A limits assumed): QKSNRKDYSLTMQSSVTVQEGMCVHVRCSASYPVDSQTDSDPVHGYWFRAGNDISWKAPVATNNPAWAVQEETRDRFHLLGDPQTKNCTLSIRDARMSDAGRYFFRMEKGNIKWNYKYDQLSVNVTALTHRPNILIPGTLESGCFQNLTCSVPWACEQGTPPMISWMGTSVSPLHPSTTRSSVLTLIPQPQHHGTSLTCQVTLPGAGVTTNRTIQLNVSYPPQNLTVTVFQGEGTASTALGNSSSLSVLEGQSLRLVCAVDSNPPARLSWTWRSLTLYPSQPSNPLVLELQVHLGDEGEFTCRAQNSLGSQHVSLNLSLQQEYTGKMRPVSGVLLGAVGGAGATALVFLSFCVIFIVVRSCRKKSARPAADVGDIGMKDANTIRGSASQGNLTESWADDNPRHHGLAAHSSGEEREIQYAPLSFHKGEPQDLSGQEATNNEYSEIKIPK

V44A = target: T4, V44A (human, UniProt Q9Y286); assay: as above
T4 construct: clone of the siglec-7 mutation library; also called Siglec-7 V44A
T4 sequence (Q9Y286 19-467 V44A limits assumed): as the sequence (Q9Y286 19-467 F48A limits assumed) above, with V26A, A30F counted along it

N81A = target: T5, N81A (human, UniProt Q9Y286); assay: as above
T5 construct: clone of the siglec-7 mutation library; also called Siglec-7 N81A
T5 sequence (Q9Y286 19-467 N81A limits assumed): as the sequence (Q9Y286 19-467 F48A limits assumed) above, with A30F, N63A counted along it

S47A = target: T6, S47A (human, UniProt Q9Y286); assay: as above
T6 construct: clone of the siglec-7 mutation library; also called Siglec-7 S47A
T6 sequence (Q9Y286 19-467 S47A limits assumed): as the sequence (Q9Y286 19-467 F48A limits assumed) above, with S29A, A30F counted along it

I72A = target: T7, I72A (human, UniProt Q9Y286); assay: as above
T7 construct: clone of the siglec-7 mutation library; also called Siglec-7 I72A
T7 sequence (Q9Y286 19-467 I72A limits assumed): as the sequence (Q9Y286 19-467 F48A limits assumed) above, with A30F, I54A counted along it

Y50A = target: T8, Y50A (human, UniProt Q9Y286); assay: as above
T8 construct: clone of the siglec-7 mutation library; also called Siglec-7 Y50A
T8 sequence (Q9Y286 19-467 Y50A limits assumed): as the sequence (Q9Y286 19-467 F48A limits assumed) above, with A30F, Y32A counted along it

R45A = target: T9, R45A (human, UniProt Q9Y286); assay: as above
T9 construct: clone of the siglec-7 mutation library; also called Siglec-7 R45A
T9 sequence (Q9Y286 19-467 R45A limits assumed): as the sequence (Q9Y286 19-467 F48A limits assumed) above, with R27A, A30F counted along it

M185A = target: T10, M185A (human, UniProt Q9Y286); assay: as above
T10 construct: clone of the siglec-7 mutation library; also called Siglec-7 M185A
T10 sequence (Q9Y286 19-467 M185A limits assumed): as the sequence (Q9Y286 19-467 F48A limits assumed) above, with A30F, M167A counted along it

W74A = target: T11, W74A (human, UniProt Q9Y286); assay: as above
T11 construct: clone of the siglec-7 mutation library; also called Siglec-7 W74A
T11 sequence (Q9Y286 19-467 W74A limits assumed): as the sequence (Q9Y286 19-467 F48A limits assumed) above, with A30F, W56A counted along it

M30A = target: T12, M30A (human, UniProt Q9Y286); assay: as above
T12 construct: clone of the siglec-7 mutation library; also called Siglec-7 M30A
T12 sequence (Q9Y286 19-467 M30A limits assumed): as the sequence (Q9Y286 19-467 F48A limits assumed) above, with M12A, A30F counted along it

[1] = target: T13, human Siglec-7 expressed on human cells (primary monocytes, dendritic cells, macrophages, NK cells, … (human, UniProt Q9Y286 19-467)); assay: cell-based or functional assay
T13 sequence (Q9Y286 19-467): as the sequence (Q9Y286 19-467 F48A limits assumed) above, with A30F counted along it

[2] = target: T13, human Siglec-7 expressed on human cells …; assay: FACS, human primary macrophages, 10 ug/ml mAb

T1 sequence (Q9Y286 19-467 T103A limits assumed): as the sequence (Q9Y286 19-467 F48A limits assumed) above, with A30F, T85A counted along it
T2 sequence (Q9Y286 19-467 K104A limits assumed): as the sequence (Q9Y286 19-467 F48A limits assumed) above, with A30F, K86A counted along it

B1: anti-Siglec-7 antibody 10B5 (antibody, V domains shown)
VH: QVHLQQSGPELVKPGASVKISCKASGYAFTNCWMNWVRQRPGKGLDWIGRIFPGNGHTNYSGKFKDKATLTEDKSSSTAYMQLSSLTSEDSAVYFCARDYSDYYFDYWGQGTTLTVSS
VL: DVQMTQTTSSLSASLGDRVTISCRASQDINTYLNWYQQKPDGTVKLLIYYTSRLHSGVPSRFSGSGSGTDYSLTISNLEQEDIATYFCQQGNTLPWTFGGGTKLEIK
notes: that light chain holds several Z and differs in its CDRs from S7-10B5.1 / 10B5L1; also called S7-10B5; mAb S7-10B5
Binding Reactivity (% WT) (T103A): 96.3 % WT | Binding Reactivity (% WT) (K104A): 13.6 % WT | Binding Reactivity (% WT) (F48A): 159 % WT | Binding Reactivity (% WT) (V44A): 93.9 % WT | Binding Reactivity (% WT) (N81A): 153 % WT | Binding Reactivity (% WT) (S47A): 81.7 % WT | Binding Reactivity (% WT) (I72A): 130 % WT | Binding Reactivity (% WT) (Y50A): 108 % WT | Binding Reactivity (% WT) (R45A): 37.3 % WT | Binding Reactivity (% WT) (M185A): 29.1 % WT | Binding Reactivity (% WT) (W74A): 101 % WT | Binding Reactivity (% WT) (M30A): 89.9 % WT | EC50 of Siglec-7 cell surface downregulation, primary human dendritic cells, donor 362 [1]: 0.144 nM | EC50 of Siglec-7 cell surface downregulation, primary human dendritic cells, donor 363 [1]: 0.35 nM | EC50 of Siglec-7 cell surface downregulation, primary human dendritic cells, donor 364 [1]: 0.103 nM | EC50 of Siglec-7 cell surface downregulation, primary human dendritic cells, donor 365 [1]: 0.0713 nM | % Positive [2]: 99.7% | MFI [2]: 6030
